Reference: IntAct's records for PubMed 31515488

B1: E3 ubiquitin-protein ligase CCNB1IP1 (Homo sapiens), Q9NPC3 (parent)
chain: MSLCEDMLLCNYRKCRIKLSGYAWVTACSHIFCDQHGSGEFSRSPAICPACNSTLSGKLDIVRTELSPSEEYKAMVLAGLRPEIVLDISSRALAFWTYQVHQERLYQEYNFSKAEGHLKQMEKIYTQQIQSKDVELTSMKGEVTSMKKVLEEYKKKFSDISEKLMERNRQYQKLQGLYDSLRLRNITIANHEGTLEPSMIAQSGVLGFPLGNNSKFPLDNTPVRNRGDGDGDFQFRPFFAGSPTAPEPSNSFFSFVSPSRELEQQQVSSRAFKVKRI
partner: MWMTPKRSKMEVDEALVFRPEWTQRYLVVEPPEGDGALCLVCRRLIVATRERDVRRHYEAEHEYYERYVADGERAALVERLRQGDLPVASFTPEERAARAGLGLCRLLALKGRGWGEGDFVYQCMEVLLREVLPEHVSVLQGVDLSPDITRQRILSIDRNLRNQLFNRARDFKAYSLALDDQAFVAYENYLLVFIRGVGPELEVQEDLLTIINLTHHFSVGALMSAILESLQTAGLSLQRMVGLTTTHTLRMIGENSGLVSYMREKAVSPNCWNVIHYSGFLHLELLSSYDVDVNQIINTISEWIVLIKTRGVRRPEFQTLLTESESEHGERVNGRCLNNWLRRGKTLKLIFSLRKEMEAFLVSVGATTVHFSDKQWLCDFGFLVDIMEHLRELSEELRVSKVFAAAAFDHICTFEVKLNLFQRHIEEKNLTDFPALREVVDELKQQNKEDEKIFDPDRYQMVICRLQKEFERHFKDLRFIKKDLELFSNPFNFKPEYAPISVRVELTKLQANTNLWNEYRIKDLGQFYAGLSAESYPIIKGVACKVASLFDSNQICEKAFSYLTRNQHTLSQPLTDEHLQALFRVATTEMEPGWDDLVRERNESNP
B2: CDK5 regulatory subunit-associated protein 3 (Homo sapiens), Q96JB5 (parent)
chain: MEDHQHVPIDIQTSKLLDWLVDRRHCSLKWQSLVLTIREKINAAIQDMPESEEIAQLLSGSYIHYFHCLRILDLLKGTEASTKNIFGRYSSQRMKDWQEIIALYEKDNTYLVELSSLLVRNVNYEIPSLKKQIAKCQQLQQEYSRKEEECQAGAAEMREQFYHSCKQYGITGENVRGELLALVKDLPSQLAEIGAAAQQSLGEAIDVYQASVGFVCESPTEQVLPMLRFVQKRGNSTVYEWRTGTEPSVVERPHLEELPEQVAEDAIDWGDFGVEAVSEGTDSGISAEAAGIDWGIFPESDSKDPGGDGIDWGDDAVALQITVLEAGTQAPEGVARGPDALTLLEYTETRNQFLDELMELEIFLAQRAVELSEEADVLSVSQFQLAPAILQGQTKEKMVTMVSVLEDLIGKLTSLQLQHLFMILASPRYVDRVTEFLQQKLKQSQLLALKKELMVQKQQEALEEQAALEPKLDLLLEKTKELQKLIEADISKRYSGRPVNLMGTSL
partner: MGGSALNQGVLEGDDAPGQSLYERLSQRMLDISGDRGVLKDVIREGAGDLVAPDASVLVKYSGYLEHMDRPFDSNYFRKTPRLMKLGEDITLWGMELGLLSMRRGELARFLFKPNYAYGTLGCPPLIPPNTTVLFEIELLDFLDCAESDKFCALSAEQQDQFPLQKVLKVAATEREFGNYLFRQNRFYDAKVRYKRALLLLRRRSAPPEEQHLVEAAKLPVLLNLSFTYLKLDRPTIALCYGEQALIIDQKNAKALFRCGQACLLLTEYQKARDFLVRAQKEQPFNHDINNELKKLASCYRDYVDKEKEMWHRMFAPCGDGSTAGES
B3: Protein FAM168A (Homo sapiens), Q92567 (parent)
chain: MNPVYSPVQPGAPYGNPKNMAYTGYPTAYPAAAPAYNPSLYPTNSPSYAPEFQFLHSAYATLLMKQAWPQNSSSCGTEGTFHLPVDTGTENRTYQASSAAFRYTAGTPYKVPPTQSNTAPPPYSPSPNPYQTAMYPIRSAYPQQNLYAQGAYYTQPVYAAQPHVIHHTTVVQPNSIPSAIYPAPVAAPRTNGVAMGMVAGTTMAMSAGTLLTTPQHTAIGAHPVSMPTYRAQGTPAYSYVPPHW
partner: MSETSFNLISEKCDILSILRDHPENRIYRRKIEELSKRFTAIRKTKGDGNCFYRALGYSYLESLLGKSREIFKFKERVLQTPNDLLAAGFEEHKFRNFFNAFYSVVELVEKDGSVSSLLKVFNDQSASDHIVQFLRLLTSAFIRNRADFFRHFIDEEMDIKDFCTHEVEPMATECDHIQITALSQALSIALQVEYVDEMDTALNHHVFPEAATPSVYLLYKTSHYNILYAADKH
B4: Protein BANP (Homo sapiens), Q8N9N5-2 (parent)
chain: MMSEHDLADVVQIAVEDLSPDHPVVLENHVVTDEDEPALKRQRLEINCQDPSIKSFLYSINQTICLRLDSIEAKLQALEATCKSLEEKLDLVTNKQHSPIQVPMVAGSPLGATQTCNKVRCAVPGRRQNTIVVKVPGQEDSHHEDGESGSEASDSVSSCGQAGSQSIGSNVTLITLNSEEDYPNGTWLGDENNPEMRVRCAIIPSDMLHISTNCRTAEKMALTLLDYLFHREVQAVSNLSGQGKHGKKQLDPLTIYGIRCHLFYKFGITESDWYRIKQSIDSKCRTAWRRKQRGQSLAVKSFSRRTPNSSSYCPSEPMMSTPPPASELPQPQPQPQALHYALANAQQVQIHQIGEDGQVQVIPQGHLHIAQVPQGEQVQITQDSEGNLQIHHVGQDGQVLQGAQLIAVASSDPAAAGVDGSPLQGSDIQVQYVQLAPVSDHTAGAQTAEALQPTLQPEMQLEHGAIQIQ
partner: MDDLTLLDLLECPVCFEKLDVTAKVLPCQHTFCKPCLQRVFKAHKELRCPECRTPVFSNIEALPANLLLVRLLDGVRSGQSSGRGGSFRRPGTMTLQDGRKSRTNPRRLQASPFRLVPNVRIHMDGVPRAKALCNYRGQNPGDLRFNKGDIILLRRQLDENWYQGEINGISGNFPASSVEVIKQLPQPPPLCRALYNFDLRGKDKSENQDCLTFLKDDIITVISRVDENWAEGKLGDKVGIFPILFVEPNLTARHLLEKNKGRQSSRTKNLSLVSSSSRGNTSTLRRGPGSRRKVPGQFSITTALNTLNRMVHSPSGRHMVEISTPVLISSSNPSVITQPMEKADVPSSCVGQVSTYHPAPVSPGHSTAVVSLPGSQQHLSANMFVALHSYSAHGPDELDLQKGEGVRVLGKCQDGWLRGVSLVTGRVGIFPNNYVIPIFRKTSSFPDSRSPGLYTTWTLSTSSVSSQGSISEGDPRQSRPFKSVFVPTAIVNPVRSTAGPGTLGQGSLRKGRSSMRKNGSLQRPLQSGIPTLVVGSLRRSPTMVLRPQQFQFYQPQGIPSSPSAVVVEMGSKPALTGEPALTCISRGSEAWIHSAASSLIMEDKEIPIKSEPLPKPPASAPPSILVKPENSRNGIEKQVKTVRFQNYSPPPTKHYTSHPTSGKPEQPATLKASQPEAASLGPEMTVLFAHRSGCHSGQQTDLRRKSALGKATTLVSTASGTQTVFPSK

Variants of: B1
Settings: with epmip_human EPM2AIP1, Q7L775

Row | effect of a mutation on the interaction | Variant
1 | with no effect | T187A
2 | with no effect | N212D

Variants of: B2
Settings: with fkbp6_human FKBP6, O75344

Row | effect of a mutation on the interaction | Variant
3 | with no effect | E173K

Variants of: B3
Settings: with otub2_human OTUB2, Q96DC9

Row | effect of a mutation on the interaction | Variant
4 | disrupting interaction strength | P122R

Variants of: B4
Settings: with sh3r2_human SH3RF2, Q8TEC5

Row | effect of a mutation on the interaction | Variant
5 | with no effect | A162V
